# In patent publication US20060134087A1, “ITI-D1 Kunitz domain mutants as hNE inhibitors” (Dyax Corp., priority 1988, published 2006):
# Values joined by “and” are separate entries in the source; they are usually repeats but may differ in a detail not shown here. Equal values may be shown once.
# Target: T1, agarose-immobilized hNE beads (Homo sapiens, UniProt P08246)
# T1 sequence (P08246 30-267): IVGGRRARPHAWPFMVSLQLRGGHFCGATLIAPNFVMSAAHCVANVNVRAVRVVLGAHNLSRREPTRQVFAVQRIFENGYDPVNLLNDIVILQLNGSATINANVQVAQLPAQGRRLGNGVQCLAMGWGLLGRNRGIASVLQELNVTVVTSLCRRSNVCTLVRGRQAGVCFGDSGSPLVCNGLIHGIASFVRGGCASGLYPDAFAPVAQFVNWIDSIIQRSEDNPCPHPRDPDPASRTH
# Assay: pH fractionation of display phage on agarose-immobilized hNE beads
# Assay type: binding
# Set-up: Fraction of Input recovered at pH7.0: scale not given here
# Details: for Recovery Total: total fraction of input; for reduction of display phage binding to hNE-beads / effect of change on binding of display phage to hNE-beads: relative to parental MA-BITI-E7-141; for fraction of input: abbreviated fractionation
# Source text: For the purpose of simultaneously assessing the affinity of a large number of different BPTI and ITI-D1 muteins, DNA sequences encoding the BPTI or ITI-D1 was incorporated into the genome of the bacteriophage M13. […] Alterations in the KuDom amino acid sequence were introduced. Each pure population of phage displaying a particular KuDom was characterized with regard to its interactions with immobilized hNE or hCG. Based on comparison to the pH elution profiles of phage displaying other KuDoms of known affinities for the particular protease, mutant KuDoms having high affinity for the target proteases were identified. Subsequently, the sequences of these mutant KuDoms were determined (typically by sequencing the corresponding DNA sequence).
# To test if phage displaying the ITI-D1::III fusion protein interact strongly with the proteases human neutrophil elastase (hNE), aliquots of display phage were incubated with agarose-immobilized hNE beads (“hNE beads”). The beads were washed and bound phage eluted by pH fractionation as described in U.S. Pat. No. 5,223,409. The pHs used in the step gradient were 7.0, 6.0, 5.5, 5.0, 4.5, 4.0, 3.5, 3.0, 2.5, and 2.0. Following elution and neutralization, the various input, wash, and pH elution fractions were titered. Phage displaying ITI-D1 were compared to phage that display EpiNE-7.
# To test if ITI-D1E7-display phage bind hNE beads, pH elution profiles were measured. Aliquots of EpiNE-7, MA-ITI-D1, and MA-ITI-D1E7 display phage were incubated with hNE beads for three hours at room temperature (RT). The beads were washed and phage were eluted as described in U.S. Pat. No. 5,223,409, except that only three pH elutions were performed. […] The pH elution profile of EpiNE-7 display phage is as described. MA-ITI-D1E7 phage show a broad elution maximum around pH 5. The total fraction of MA-ITI-D1E7 phage obtained on pH elution from hNE beads was about 40-fold less than that obtained using EpiNE-7 display phage.
# We characterized the binding properties to hNE-beads of MA-BITI and MA-BITI-E7 display phage using the extended pH fractionation procedure described in U.S. Pat. No. 5,223,409.
# The binding capacity of hNE-beads for display phage varies among preparations of beads and with age for each individual preparation of beads. Thus, it is difficult to directly compare absolute yields of phage from elutions performed at different times. For example, the fraction of MA-EpiNE7 display phage recovered from hNE-beads varies two-fold among the experiments shown in Tables 14, 16, and 17. However, the shapes of the pH elution profiles are similar. It is possible to correct somewhat for variations in binding capacity of hNE-beads by normalizing display phage yields to the total yield of MA-EpiNE7 phage recovered from the beads in a concurrent elution. When the data shown in Tables 14, 16, and 17 are so normalized, the recoveries of display phage, relative to recovered MA-EpiNE7, are shown in Table 3.
# ITI-D1 derivative BITI-E7-1222 is BITI-E7 with the alteration A11T. ITI-D1 derivative BITI-E7-141 is BITI-E7 with the alterations E31Q and Q34V; phage that display the presence of these proteins are MA-BITI-E7-1222 and MA-BITI-E7-141. We determined the binding properties to hNE-beads of MA-BITI-E7-1222 and MA-BITI-E7-141 display phage using the extended pH fractionation protocol described previously. The results are in Tables 18 (for MA-BITI-E7 and MA-BITI-E7-1222) and 19 (for MA-EpiNE7 and MA-BITI-E7-141). The pH elution profiles for the MA-BITI-E7 and MA-BITI-E7-1222 phage are almost identical.
# Total pfu applied to the beads are in column two. The fractions of this input pfu recovered in each pH fraction of the abbreviated pH elution protocol (pH 7.0, pH 3.5, and pH 2.0) are in the next three columns. […]
# [1] = EE extended pH elution protocol
# [2] = EE, sum of pH 3.0, 2.5, 2.0 samples
# [3] = EE, sum of pH 6.0 to pH 3.5 samples
# [4] = AE abbreviated pH elution protocol
# [5] = SUM of all pH elution fractions
# [6] = extended protocol, final TBS-TWEEN wash
# [7] = extended protocol, pH 3.0 fraction
# [8] = extended protocol, pH 4.0 fraction
# [9] = extended protocol, pH 4.5 fraction
# [10] = extended protocol, pH 5.0 fraction
# [11] = extended protocol, pH 5.5 fraction
# [12] = extended protocol, pH 7.0 fraction
substance,measurement,setting,value
"AMINO1: ITI-D1 derivative carrying K1-E2, SEQ ID NO 022 (KEDFCQLGYSAGPCVAMFPRYFYNGTSMACETFQYGGCMGNGNNFVTEKDCLQTCRGA; AMINO1)",Fraction of Input recovered at pH7.0,[1],0.24
same,Fraction of Input recovered at pH2.0,[2],0.35 ×10^−4
same,Fraction of Input recovered at pH3.5,[3],2.3 ×10^−4
same,Recovery Total,EE,2.9 ×10^−4
same,reduction of display phage binding to hNE-beads,,at least ten fold
"AMINO2: ITI-D1 derivative carrying K1-S4, SEQ ID NO 023 (KPDSCQLGYSAGPCVAMFPRYFYNGTSMACETFQYGGCMGNGNNFVTEKDCLQTCRGA; AMINO2)",Fraction of Input recovered at pH2.0,[4],0.45 ×10^−4
same,Fraction of Input recovered at pH3.5,[4],2.1 ×10^−4
same,Fraction of Input recovered at pH7.0,[4],0.57
same,Recovery Total,AE,3.1 ×10^−4
same,reduction of display phage binding to hNE-beads,,at least ten fold
BITI-E7-141: BITI-E7 with the alterations E31Q and Q34V; SEQ ID NO 017 (RPDFCQLGYSAGPCVAMFPRYFYNGTSMACQTFVYGGCMGNGNNFVTEKDCLQTCRGA; BITI-E7-141),fold greater affinity for hNE than BITI-E7,,approximately 100 fold
same,Fraction of Input recovered at pH2.0,[4],5.4 ×10^−4
same,Fraction of Input recovered at pH3.5,[4],18.0 ×10^−4
same,Fraction of Input recovered at pH7.0,[4],2.2
same,Recovery Total,AE,26.0 ×10^−4
same,Fraction of Input recovered at pH7.0,[1],2.1
same,Fraction of Input recovered at pH2.0,[2],3.2 ×10^−4
same,Fraction of Input recovered at pH3.5,[3],21. ×10^−4
same,Recovery Total,EE,26.0 ×10^−4
same,Fraction of Input bound,range of the affinity class,>0.1%
same,pH Elution Maximum,range of the affinity class,≦4.0 pH
BITI-E7-1222: BITI-E7 with the alteration A11T; SEQ ID NO 143 (RPDFCQLGYSTGPCVAMFPRYFYNGTSMACETFQYGGCMGNGNNFVTEKDCLQTCRGA; BITI-E7-1222),Fraction of Input recovered at pH7.0,[1],0.72
same,Fraction of Input recovered at pH2.0,[2],0.64 ×10^−4
same,Fraction of Input recovered at pH3.5,[3],4.0 ×10^−4
same,Recovery Total,EE,5.4 ×10^−4
"BITI-E7: ITI-D1E7 with K1R, E2P and S4F; SEQ ID NO 142 (RPDFCQLGYSAGPCVAMFPRYFYNGTSMACETFQYGGCMGNGNNFVTEKDCLQTCRGA; BITI-E7)",fold greater affinity for hNE than ITI-D1E7,,ten-fold
"EpiNE7: BPTI-derived Kunitz domain, SEQ ID NO 009; in Tables 14-16 the phage displaying it",fold greater affinity for hNE than ITI-D1E7,,roughly 1000 fold
same,Fraction of Input recovered at pH7.0,[1],0.44
same,Fraction of Input recovered at pH2.0,[2],2.2 ×10^−4
same,Fraction of Input recovered at pH3.5,[3],6.4 ×10^−4
same,Recovery Total,EE,9.0 ×10^−4
same,pfu,[5],6.4 · 10^6 pfu and 7.6 · 10^6 pfu
same,pfu/INPUT (fraction of input),[5],3 · 10^−3 and 4.1 · 10^−3
same,fraction of input,[5],4.3 · 10^−3
same,fraction of input,Wash,6 · 10^−5
same,fraction of input,pH 2.0,1 · 10^−3
same,fraction of input,pH 3.5,3 · 10^−3
same,fraction of input,pH 7.0,3 · 10^−4
same,total fraction of input phage eluted from hNE beads,all pH elution fractions,About 0.3%
same,pH Elution Maximum,display phage on hNE beads,~4.0 pH
same,pfu,[6],3.8 · 10^5 pfu
same,pfu/INPUT (fraction of input),[6],1.2 · 10^−4
same,pfu,"extended protocol, pH 2.0 fraction",3.0 · 10^5 pfu and 2.9 · 10^5 pfu
same,pfu,"extended protocol, pH 2.5 fraction",1.6 · 10^5 pfu and 2.8 · 10^5 pfu
same,pfu,[7],6.6 · 10^5 pfu and 3.8 · 10^5 pfu
same,pfu/INPUT (fraction of input),[7],2.0 · 10^−4 and 2.1 · 10^−4
same,pfu,[8],1.6 · 10^6 pfu and 1.7 · 10^6 pfu
same,pfu/INPUT (fraction of input),[8],4.8 · 10^−4 and 9.4 · 10^−4
same,pfu,[9],1.2 · 10^6 pfu and 1.1 · 10^6 pfu
same,pfu/INPUT (fraction of input),[9],3.5 · 10^−4 and 6.1 · 10^−4
same,pfu,[10],9.5 · 10^5 pfu and 8.4 · 10^5 pfu
same,pfu/INPUT (fraction of input),[10],2.9 · 10^−4 and 4.7 · 10^−4
same,pfu,[11],9.4 · 10^5 pfu and 7.8 · 10^5 pfu
same,pfu/INPUT (fraction of input),[11],2.8 · 10^−4 and 4.3 · 10^−4
same,pfu/INPUT (fraction of input),"extended protocol, pH 6.0 fraction",4.1 · 10^−4 and 3.6 · 10^−4
same,pfu,[12],6.2 · 10^5 pfu and 5.2 · 10^5 pfu
same,pfu/INPUT (fraction of input),[12],1.8 · 10^−4 and 2.9 · 10^−4
"ITI-D1E7: ITI-D1 with EpiNE-7 sequence at positions 15-20, SEQ ID NO 021 (KEDSCQLGYSAGPCVAMFPRYFYNGTSMACETFQYGGCMGNGNNFVTEKDCLQTCRGA; ITI-D1E7)",estimated affinity of free protein for hNE,estimated from pH elution profile of display phage,in the nM range
MUT1619: BITI-E7-141 with ITI-D1 residues restored at 16 and 19; SEQ ID NO 020 (RPDFCQLGYSAGPCVGMFSRYFYNGTSMACQTFVYGGCMGNGNNFVTEKDCLQTCRGA; MUT1619),Fraction of Input recovered at pH7.0,[1],0.82
same,Fraction of Input recovered at pH2.0,[2],0.84 ×10^−4
same,Fraction of Input recovered at pH3.5,[3],9.9 ×10^−4
same,Recovery Total,EE,12.0 ×10^−4
same,Fraction of Input bound,range of the affinity class,>0.1%
same,pH Elution Maximum,range of the affinity class,≦4.0 pH
"MUTP1: ITI-D1 derivative asserting I15, G16, S19; SEQ ID NO 024 (RPDFCQLGYSAGPCIGMFSRYFYNGTSMACETFQYGGCMGNGNNFVTEKDCLQTCRGA; MUTP1)",Fraction of Input recovered at pH2.0,[4],1.2 ×10^−4
same,Fraction of Input recovered at pH3.5,[4],9.2 ×10^−4
same,Fraction of Input recovered at pH7.0,[4],1.8
same,Recovery Total,AE,12.0 ×10^−4
MUTQE: BITI-E7-141 with Q31E; SEQ ID NO 019 (RPDFCQLGYSAGPCVAMFPRYFYNGTSMACETFVYGGCMGNGNNFVTEKDCLQTCRGA; MUTQE),Fraction of Input recovered at pH2.0,[4],5.3 ×10^−4
same,Fraction of Input recovered at pH3.5,[4],16. ×10^−4
same,Fraction of Input recovered at pH7.0,[4],1.2
same,Recovery Total,AE,22.0 ×10^−4
same,Fraction of Input bound,range of the affinity class,>0.1%
same,pH Elution Maximum,range of the affinity class,≦4.0 pH
same,effect of change on binding of display phage to hNE-beads,,little effect
MUTT26A: BITI-E7-141 with T26A; SEQ ID NO 018 (RPDFCQLGYSAGPCVAMFPRYFYNGASMACQTFVYGGCMGNGNNFVTEKDCLQTCRGA; MUTT26A),Fraction of Input recovered at pH7.0,[1],2.5
same,Fraction of Input recovered at pH2.0,[2],3.3 ×10^−4
same,Fraction of Input recovered at pH3.5,[3],19.0 ×10^−4
same,Recovery Total,EE,25.0 ×10^−4
same,Fraction of Input bound,range of the affinity class,>0.1%
same,pH Elution Maximum,range of the affinity class,≦4.0 pH
same,effect of change on binding of display phage to hNE-beads,,little effect
